In paper PMC9482650, “Quantitative fragmentomics allow affinity mapping of interactomes” (Nature Communications, 2022):

T1: APBA3_1, O96018
T1 sequence (O96018 389-490, limits assumed, looked up): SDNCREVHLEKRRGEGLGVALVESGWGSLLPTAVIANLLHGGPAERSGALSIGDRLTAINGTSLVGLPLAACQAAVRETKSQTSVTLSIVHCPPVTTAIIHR

T2: ARHGEF11, O15085
T2 sequence (O15085 42-136, limits assumed, looked up): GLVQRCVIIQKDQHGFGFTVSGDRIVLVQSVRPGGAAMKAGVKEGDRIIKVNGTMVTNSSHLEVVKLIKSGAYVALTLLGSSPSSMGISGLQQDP

T3: DFNB31_2, Q9P202
T3 sequence (Q9P202 274-371, limits assumed, looked up): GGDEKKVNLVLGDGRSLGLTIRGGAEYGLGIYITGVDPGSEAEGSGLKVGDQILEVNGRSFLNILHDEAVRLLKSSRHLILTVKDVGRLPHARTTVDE

T4: DFNB31_3, Q9P202
T4 sequence (Q9P202 811-907, limits assumed, looked up): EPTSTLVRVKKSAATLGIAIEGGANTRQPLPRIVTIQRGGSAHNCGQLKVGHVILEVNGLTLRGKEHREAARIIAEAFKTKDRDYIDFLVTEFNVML

T5: HTRA3, P83110
T5 sequence (P83110 354-453, limits assumed, looked up): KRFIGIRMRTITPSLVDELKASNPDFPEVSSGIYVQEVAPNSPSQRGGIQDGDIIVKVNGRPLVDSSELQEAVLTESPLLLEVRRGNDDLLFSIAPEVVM

T6: LNX2_2, Q8N448
T6 sequence (Q8N448 334-432, limits assumed, looked up): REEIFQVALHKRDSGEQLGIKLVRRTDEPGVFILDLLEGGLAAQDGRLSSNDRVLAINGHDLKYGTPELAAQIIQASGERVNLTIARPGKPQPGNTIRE

T7: MPDZ_12, O75970
T7 sequence (O75970 1857-1958, limits assumed, looked up): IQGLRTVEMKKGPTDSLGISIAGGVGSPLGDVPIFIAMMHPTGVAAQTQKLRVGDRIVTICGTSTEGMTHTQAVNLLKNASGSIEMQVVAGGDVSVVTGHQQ

T8: RAPGEF6, Q8TEU7
T8 sequence (Q8TEU7 525-625, limits assumed, looked up): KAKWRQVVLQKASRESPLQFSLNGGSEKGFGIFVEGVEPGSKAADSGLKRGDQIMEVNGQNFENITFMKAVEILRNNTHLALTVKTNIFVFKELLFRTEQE

T9: SNTB1, Q13884
T9 sequence (Q13884 107-205, limits assumed, looked up): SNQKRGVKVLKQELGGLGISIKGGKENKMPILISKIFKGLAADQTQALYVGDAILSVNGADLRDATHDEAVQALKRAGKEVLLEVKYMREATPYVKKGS

T10: SNTG1, Q9NSN8
T10 sequence (Q9NSN8 52-150, limits assumed, looked up): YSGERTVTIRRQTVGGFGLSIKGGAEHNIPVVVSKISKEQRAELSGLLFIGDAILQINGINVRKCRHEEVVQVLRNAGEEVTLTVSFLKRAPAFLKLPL

T11: TJP3_3, O95049
T11 sequence (O95049 375-456, limits assumed, looked up): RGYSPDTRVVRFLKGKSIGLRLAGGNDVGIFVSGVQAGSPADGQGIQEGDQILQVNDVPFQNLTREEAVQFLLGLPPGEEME

B1: HDAC7, Q8WUI4 (peptide)
chain: LVEEEEPMNL
B2: FAM167B, Q9BTA0 (peptide)
chain: NISARRFTLC
B3: DUSP5, Q16690 (peptide)
chain: RSPVATATSC
B4: GAS2L2, Q8NHY3 (peptide)
chain: PLPPEEESWV
B5: FAM71C, Q8NEG0 (peptide)
chain: STYCDYTIEI

Experiments:
Assay in all cases: holdup assay
Set-up in all cases: key: below the threshold = too weak to quantify, mostly under pKd 3.1 to 4
Conditions in all cases: plain residues with an end cap or a label only (N-terminal biotin on a linker: ado-ado)
APBA3_1, O96018 = target: T1, APBA3_1, O96018
ARHGEF11, O15085 = target: T2, ARHGEF11, O15085
CASK, O14936 = target: CASK, O14936
DFNB31_2, Q9P202 = target: T3, DFNB31_2, Q9P202
DFNB31_3, Q9P202 = target: T4, DFNB31_3, Q9P202
DLG1_1, Q12959 = target: DLG1_1, Q12959
DLG1_2, Q12959 = target: DLG1_2, Q12959
GIPC2, Q8TF65 = target: GIPC2, Q8TF65
GOPC, Q9HD26 = target: GOPC, Q9HD26
HTRA3, P83110 = target: T5, HTRA3, P83110
IL16_3, Q14005 = target: IL16_3, Q14005
Inadl_10, Q8NI35 = target: Inadl_10, Q8NI35
Inadl_4, Q8NI35 = target: Inadl_4, Q8NI35
LNX2_2, Q8N448 = target: T6, LNX2_2, Q8N448
MAGI2_6, Q86UL8 = target: MAGI2_6, Q86UL8
MPDZ_12, O75970 = target: T7, MPDZ_12, O75970
NHERF4_2, Q86UT5 = target: NHERF4_2, Q86UT5
NOS1, P29475 = target: NOS1, P29475
PICK1, Q9NRD5 = target: PICK1, Q9NRD5
PTPN3, P26045 = target: PTPN3, P26045
RAPGEF6, Q8TEU7 = target: T8, RAPGEF6, Q8TEU7
SCRIB_1, Q14160 = target: SCRIB_1, Q14160
SNTB1, Q13884 = target: T9, SNTB1, Q13884
SNTG1, Q9NSN8 = target: T10, SNTG1, Q9NSN8
SNX27, Q96L92 = target: SNX27, Q96L92
TJP1_3, Q07157 = target: TJP1_3, Q07157
TJP3_3, O95049 = target: T11, TJP3_3, O95049

Chain of NHERF4_2, Q86UT5 (Q86UT5 220-308): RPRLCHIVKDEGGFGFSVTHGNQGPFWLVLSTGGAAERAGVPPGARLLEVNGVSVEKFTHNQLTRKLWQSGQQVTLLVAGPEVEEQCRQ
Chain of IL16_3, Q14005 (Q14005 1107-1207): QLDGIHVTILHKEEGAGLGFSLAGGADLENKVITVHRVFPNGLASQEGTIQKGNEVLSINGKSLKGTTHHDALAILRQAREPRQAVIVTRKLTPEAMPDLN
Chain of Inadl_10, Q8NI35 (Q8NI35 1673-1763): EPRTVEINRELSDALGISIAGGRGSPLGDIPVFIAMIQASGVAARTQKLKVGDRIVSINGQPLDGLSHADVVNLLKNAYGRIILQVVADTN
Chain of TJP1_3, Q07157 (Q07157 416-512): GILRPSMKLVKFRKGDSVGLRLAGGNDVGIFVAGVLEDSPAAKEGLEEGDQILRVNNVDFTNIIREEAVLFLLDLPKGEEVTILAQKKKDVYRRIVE
Chain of Inadl_4, Q8NI35 (Q8NI35 547-651): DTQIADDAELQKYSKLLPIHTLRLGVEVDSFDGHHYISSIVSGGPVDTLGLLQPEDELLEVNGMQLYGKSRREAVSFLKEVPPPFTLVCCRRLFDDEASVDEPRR
Chain of PICK1, Q9NRD5 (Q9NRD5 17-115): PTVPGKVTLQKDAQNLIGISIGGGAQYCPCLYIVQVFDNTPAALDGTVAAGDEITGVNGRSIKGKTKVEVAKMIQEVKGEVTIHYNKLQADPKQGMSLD
Chain of MAGI2_6, Q86UL8 (Q86UL8 1141-1229): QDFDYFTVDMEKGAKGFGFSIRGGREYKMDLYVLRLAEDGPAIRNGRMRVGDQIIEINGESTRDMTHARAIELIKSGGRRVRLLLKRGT
Chain of SCRIB_1, Q14160 (Q14160 718-814): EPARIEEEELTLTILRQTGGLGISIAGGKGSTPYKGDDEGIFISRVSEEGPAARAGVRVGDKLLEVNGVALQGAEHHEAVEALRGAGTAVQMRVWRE
Chain of CASK, O14936 (O14936 487-570): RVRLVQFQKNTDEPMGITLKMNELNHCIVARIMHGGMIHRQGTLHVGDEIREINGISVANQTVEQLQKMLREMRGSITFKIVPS
Chain of GIPC2, Q8TF65 (Q8TF65 112-203): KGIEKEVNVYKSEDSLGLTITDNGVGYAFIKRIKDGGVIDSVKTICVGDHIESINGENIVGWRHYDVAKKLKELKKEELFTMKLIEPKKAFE
Chain of PTPN3, P26045 (P26045 505-587): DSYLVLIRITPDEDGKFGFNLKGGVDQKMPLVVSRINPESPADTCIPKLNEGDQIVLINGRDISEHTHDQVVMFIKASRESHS
Chain of NOS1, P29475 (P29475 9-101): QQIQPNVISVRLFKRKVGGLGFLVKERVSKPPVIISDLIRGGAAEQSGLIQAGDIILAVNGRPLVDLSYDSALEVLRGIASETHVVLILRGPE

Row | Binder | pKd (APBA3_1, O96018) | pKd (ARHGEF11, O15085) | pKd (CASK, O14936) | pKd (DFNB31_2, Q9P202) | pKd (DFNB31_3, Q9P202) | pKd (DLG1_1, Q12959) | pKd (DLG1_2, Q12959) | pKd (GIPC2, Q8TF65) | pKd (GOPC, Q9HD26) | pKd (HTRA3, P83110) | pKd (IL16_3, Q14005) | pKd (Inadl_10, Q8NI35) | pKd (Inadl_4, Q8NI35) | pKd (LNX2_2, Q8N448) | pKd (MAGI2_6, Q86UL8) | pKd (MPDZ_12, O75970) | pKd (NHERF4_2, Q86UT5) | pKd (NOS1, P29475) | pKd (PICK1, Q9NRD5) | pKd (PTPN3, P26045) | also measured
1 | B1 | below the threshold | below the threshold | below the threshold | below the threshold | 3.94 | below the threshold | below the threshold | below the threshold | below the threshold | below the threshold | below the threshold | below the threshold | below the threshold | below the threshold | below the threshold | below the threshold | below the threshold | below the threshold | 4.11 | 4.04 | pKd (RAPGEF6, Q8TEU7): below the threshold; pKd (SCRIB_1, Q14160): below the threshold; pKd (SNTB1, Q13884): below the threshold; pKd (SNTG1, Q9NSN8): below the threshold; pKd (SNX27, Q96L92): below the threshold; pKd (TJP1_3, Q07157): below the threshold; pKd (TJP3_3, O95049): below the threshold
2 | B2 | below the threshold | 3.86 | below the threshold | below the threshold | 3.99 | 4.31 | 3.92 | below the threshold | below the threshold | 4.54 | below the threshold | below the threshold | below the threshold | 5.39 | below the threshold | 3.52 | below the threshold | 3.81 | below the threshold | 3.61 | pKd (RAPGEF6, Q8TEU7): below the threshold; pKd (SCRIB_1, Q14160): below the threshold; pKd (SNTB1, Q13884): 3.52; pKd (SNTG1, Q9NSN8): 3.48; pKd (SNX27, Q96L92): below the threshold; pKd (TJP1_3, Q07157): below the threshold; pKd (TJP3_3, O95049): below the threshold
3 | B3 | below the threshold | below the threshold | below the threshold | below the threshold | below the threshold | below the threshold | below the threshold | 3.6 | below the threshold | 3.89 | below the threshold | below the threshold | below the threshold | 3.75 | below the threshold | below the threshold | below the threshold | below the threshold | 3.97 | 4.05 | pKd (RAPGEF6, Q8TEU7): below the threshold; pKd (SCRIB_1, Q14160): below the threshold; pKd (SNTB1, Q13884): below the threshold; pKd (SNTG1, Q9NSN8): below the threshold; pKd (SNX27, Q96L92): below the threshold; pKd (TJP1_3, Q07157): below the threshold; pKd (TJP3_3, O95049): below the threshold
4 | B4 | below the threshold | 4.46 | below the threshold | below the threshold | 3.99 | 4.25 | 4.67 | 4.2 | below the threshold | 5.59 | below the threshold | below the threshold | below the threshold | 5.07 | 5.88 | 4.36 | below the threshold | 4.06 | below the threshold | 4.75 | pKd (RAPGEF6, Q8TEU7): 3.6; pKd (SCRIB_1, Q14160): 4.21; pKd (SNTB1, Q13884): 4.86; pKd (SNTG1, Q9NSN8): 5.6; pKd (SNX27, Q96L92): 5.58; pKd (TJP1_3, Q07157): 3.63; pKd (TJP3_3, O95049): 4.98
5 | B5 | below the threshold | 4 | 3.67 | below the threshold | 3.86 | below the threshold | below the threshold | 3.49 | below the threshold | 4.08 | below the threshold | below the threshold | below the threshold | 4.96 | below the threshold | below the threshold | 3.51 | 3.62 | below the threshold | 4.16 | pKd (RAPGEF6, Q8TEU7): below the threshold; pKd (SCRIB_1, Q14160): below the threshold; pKd (SNTB1, Q13884): below the threshold; pKd (SNTG1, Q9NSN8): below the threshold; pKd (SNX27, Q96L92): 3.56; pKd (TJP1_3, Q07157): below the threshold; pKd (TJP3_3, O95049): below the threshold
